Assay results reported in US20220143204A1 (LINXIS B V, published 2022).

Tests used:
[1] = biological target: T1, human PDGFRB extracellular domain (human, UniProt P09619 33-532); assay: binding assay on immobilised human PDGFRB ectodomain, apparent affinity (Example 4)
T1 construct: extracellular domain; also called hPDGFRB-ECD; human PDGFRB ectodomain

[2] = biological target: T2, human PDGFRB on SCC VII cells (human, UniProt P09619 33-1106); assay: binding assay on SCC VII cells transfected with human PDGFRB (Example 4)
T2 construct: whole, on cells; also called hPDGFRB; SCC-hPDGFRB

[3] = biological target: T3, human PDGFRB on LX-2 cells (human, UniProt P09619); assay: binding assay on the human hepatic stellate cell line LX-2 (Example 4)
T3 construct: full-length receptor on the cell surface; The list has human PDGFRB only on SCC VII cells

[4] = biological target: T4, rat PDGFRB extracellular domain (rat, UniProt Q05030 32-531); assay: binding assay on immobilised rat PDGFRB ectodomain, apparent affinity (Example 4)
T4 construct: extracellular domain; also called rPDGFRB-ECD; rat PDGFRB ectodomain
T4 sequence (looked up): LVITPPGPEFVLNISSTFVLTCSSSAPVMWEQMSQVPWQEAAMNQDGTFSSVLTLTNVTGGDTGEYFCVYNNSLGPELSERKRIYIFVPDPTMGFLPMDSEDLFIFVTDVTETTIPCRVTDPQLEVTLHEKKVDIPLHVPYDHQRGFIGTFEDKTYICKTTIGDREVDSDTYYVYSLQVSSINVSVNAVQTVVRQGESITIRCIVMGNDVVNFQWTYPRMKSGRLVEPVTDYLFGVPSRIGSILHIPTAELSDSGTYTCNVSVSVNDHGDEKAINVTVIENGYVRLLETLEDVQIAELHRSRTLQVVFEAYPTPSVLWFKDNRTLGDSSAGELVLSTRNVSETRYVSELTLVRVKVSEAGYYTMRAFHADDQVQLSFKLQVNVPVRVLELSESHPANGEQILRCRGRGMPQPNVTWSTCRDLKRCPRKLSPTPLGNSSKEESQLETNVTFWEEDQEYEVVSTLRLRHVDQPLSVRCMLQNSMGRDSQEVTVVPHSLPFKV

[5] = biological target: T5, rat PDGFRB on SCC VII cells (rat, UniProt Q05030 32-1097); assay: binding assay on SCC VII cells transfected with rat PDGFRB (Example 4)
T5 construct: whole, on cells; also called rPDGFRB; SCC-rPDGFRB

T1 sequence (P09619 33-532): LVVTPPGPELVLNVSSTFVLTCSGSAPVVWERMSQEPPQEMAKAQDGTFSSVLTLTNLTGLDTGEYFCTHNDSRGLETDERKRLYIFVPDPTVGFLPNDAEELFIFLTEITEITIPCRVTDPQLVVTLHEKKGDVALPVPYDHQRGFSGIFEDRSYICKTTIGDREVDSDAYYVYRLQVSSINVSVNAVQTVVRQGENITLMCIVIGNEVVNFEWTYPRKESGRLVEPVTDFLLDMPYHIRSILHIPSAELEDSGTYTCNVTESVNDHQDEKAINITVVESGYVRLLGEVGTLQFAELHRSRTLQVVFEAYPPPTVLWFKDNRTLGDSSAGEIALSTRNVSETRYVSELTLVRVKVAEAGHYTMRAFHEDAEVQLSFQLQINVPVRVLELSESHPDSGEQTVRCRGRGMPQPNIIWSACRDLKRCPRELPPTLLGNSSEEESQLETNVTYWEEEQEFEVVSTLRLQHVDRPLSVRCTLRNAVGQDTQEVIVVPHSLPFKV
T3 sequence (P09619 33-1106 limits assumed): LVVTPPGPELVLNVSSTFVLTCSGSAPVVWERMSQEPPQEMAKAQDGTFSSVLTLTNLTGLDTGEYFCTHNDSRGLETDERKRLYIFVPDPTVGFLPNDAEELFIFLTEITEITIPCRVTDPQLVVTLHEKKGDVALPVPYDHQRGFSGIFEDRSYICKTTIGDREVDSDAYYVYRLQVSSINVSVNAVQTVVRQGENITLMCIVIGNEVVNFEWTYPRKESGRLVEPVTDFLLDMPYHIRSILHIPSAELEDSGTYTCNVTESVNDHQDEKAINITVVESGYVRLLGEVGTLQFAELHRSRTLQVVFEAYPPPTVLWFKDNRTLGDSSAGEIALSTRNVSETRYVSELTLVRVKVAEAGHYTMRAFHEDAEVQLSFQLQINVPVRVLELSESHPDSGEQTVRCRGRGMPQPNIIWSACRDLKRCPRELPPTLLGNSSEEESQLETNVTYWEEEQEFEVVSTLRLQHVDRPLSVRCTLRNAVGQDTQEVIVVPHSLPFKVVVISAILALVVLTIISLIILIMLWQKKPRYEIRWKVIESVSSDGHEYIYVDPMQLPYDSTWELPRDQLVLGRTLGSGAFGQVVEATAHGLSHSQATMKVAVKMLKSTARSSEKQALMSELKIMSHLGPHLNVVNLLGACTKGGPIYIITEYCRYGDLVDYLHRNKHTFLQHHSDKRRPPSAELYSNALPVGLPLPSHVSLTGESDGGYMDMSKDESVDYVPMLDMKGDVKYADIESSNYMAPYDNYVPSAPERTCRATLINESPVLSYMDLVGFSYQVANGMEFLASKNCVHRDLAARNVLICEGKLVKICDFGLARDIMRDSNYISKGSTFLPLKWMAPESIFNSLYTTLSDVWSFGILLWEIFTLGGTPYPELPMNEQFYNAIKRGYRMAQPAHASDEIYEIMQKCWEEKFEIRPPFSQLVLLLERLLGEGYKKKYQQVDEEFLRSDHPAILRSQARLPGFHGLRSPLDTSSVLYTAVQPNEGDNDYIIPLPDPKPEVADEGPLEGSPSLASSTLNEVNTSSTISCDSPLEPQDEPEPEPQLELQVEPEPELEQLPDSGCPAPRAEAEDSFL
T2 sequence (P09619 33-1106): as the sequence (P09619 33-1106 limits assumed) above

B1: SP01P (VHH)
VHH: EVQLVESGGGLAQAGGSLRLSCVASGNIDSANGMAWYRQAPGKQRELVAHITSGTSYYVASVEGRFTISRANAKDTWYLQMNSLKPEDTGVYYCFPIGLSAHWSQGTQVTVSS
notes: Llama VHH; on phage in the phage ELISA
[1]
  Kd: 20.4 nM
[2]
  Kd: 7.8 nM

B2: SP05P (VHH)
VHH: EVQLVESGGGLVQAGGSLRLSCAASGRTSFSGYAMAWFRQAPGKERDFVASITWSYGYTYYTDSAQGRFTISRDSAKNTVYLEMNSLKPEDTAVYYCAADPKASRFRILREYAYWGQGTQVTVSS
notes: as for B1
[3]
  Kd: 193 nM
[1]
  Kd: 9.2 nM
[2]
  Kd: 1.4 nM

B3: SP07P (VHH)
VHH: EVQLVESGGGSVQTGGSLRLSCAASGRSFSTYAMAWFRQAPGKEREFVAAINRRATDTVYADSAKGRFIISRDNDKNTVYLQMDSLKTEDTAVYYCAAAKNAYDWRWDRLRDRDYWGQRGQGTQVTVSS
notes: as for B1
[1]
  Kd: 10.1 nM
[2]
  Kd: 62.3 nM

B4: SP13P (VHH)
VHH: EVQLVESGGGLVQPGGSLRLSCAASESIFSINYMAWYRQAPGKQRELVAFSIDGSSTNYVDSVRGRFTASRDNAENTLYLQMNSLKPEDTAVYYCYAQGNTWAAGVWGQGTQVTVSS
notes: as for B1
[1]
  Kd: 9.3 nM
[2]
  Kd: 10.4 nM

B5: SP14P (VHH)
VHH: EVQLVESGGGLVQAGDSLRLSCVVSGLTFSRYGMGWFRQATGKEREFVGGISVGSSGTMYPNSVKGRFTISRDNAKSTVYLQMNSLKPEDTAVYFCAAIDQGSFVQQRDYRYWGQGTQVTVSS
notes: as for B1
[3]
  Kd: 3.1 nM
[1]
  Kd: 8.6 nM
[2]
  Kd: 0.6 nM

B6: SP12P (VHH)
VHH: EVQLVESGGGLVQAGGSLRLSCVISGRTSPTYPMGWFRQSPGNEREFVASINWSGGWRNYADSVKGRFTISRDDAKNTVYLQMNSLKPEDTAVYYCARGQYSSGTPVYAHEYAYWGQGTQVTVSS
notes: as for B1
[3]
  Kd: 0.6 nM
[2]
  Kd: 0.3 nM

B7: SP20P (VHH)
VHH: EVQLVESGGGLVQAGGSLRLSCVISGRTSPTYPMGWFRQSPGNEREFVASINWSGGWRNYADSVKDRFTISRDDAKNTVYLQMNSLKPEDTAVYYCARGQYSSGTPVYAHEYAYWGQGTQVTVSS
notes: as for B1
[3]
  Kd: 53.6 nM
[1]
  Kd: 3.8 nM
[2]
  Kd: 1 nM

B8: SP11P (VHH)
VHH: EVQLVESGGGLVQAGDSLRLSCAASGRTFSSYPIAWFRQAPGKEREFVAAITSSGLTTYYANVVKGRFAISRDNAKDTVYLQMNSLKPEDTAVHYCATSNGFLSGRDIYQHNKYIYWGQGTQVTVSS
notes: as for B1
[1]
  binding result: binds

B9: SP15P (VHH)
VHH: EVQLVESGGGLVQAGGSLRLSCAASGRAFGGPYMAWFRQTPGKGREFVAAISPSSVYTFYQDSVKGRFTISRDNTKNTAYLQMNSLKPEDTAVYYCAAEAAGEVRLETSYKYWGQGTQVTVSS
notes: as for B1
[1]
  binding result: binds

B10: SP17P (VHH)
VHH: EVQLVESGGGLVQPGGSLRLSCAASGLTFVNYAMGWFRQAPGKERELVAGIASSGRIYYADSVAGRFTISRDNARNTVNLQMNSMKPEDTAVYYCAGRRSFSSTSAADYNYWGQGTQVTVSS
notes: as for B1
[1]
  binding result: binds

B11: SP21P (VHH)
VHH: EVQLVESGGGLVQPGGSLRLSCVVSGSSFSSYTMGWFRRAPGKQRELVAGVSTVGDTAAADSVKGRFTISRDNAKNTVYLQMNSLKPEDTAVYYCNTYPHAYLEWGQGTQVTVSS
notes: as for B1
[1]
  binding result: binds

B12: SP23P (VHH)
VHH: EVQLVESGGELVQAGGSLRLSCAVSGRTLTSYPMGWFRQAPGKEREFVAAISWSGGDTMYADSVKGRFTISRDNSKNTVYLQMNSLKPEDTADYYCARRRYSSGISRHLVDYEYWGQGTQVTVSS
notes: as for B1
[1]
  binding result: binds

B13: SP08P (VHH)
VHH: EVQLVESGGGLVQAGGSLRLSCAASGRTFNGYAMAWFRQAPGKERDFVASITWSYGYTYYADSAQGRFTISRDSAKNTVYLEMNSLKPEDTAVYYCAADPKASRFRILRQYAHWGQGTQVTVSS
notes: as for B1
[3]
  Kd: 60.2 nM
[2]
  Kd: 0.5 nM

B14: SP10P (VHH)
VHH: EVQLVESGGGLVQAGGSLRLSCAASGRTFNGYAMGWFRQAPGKERDFVAAITWSYGYTHYAESVKGRFSISRDSANNMVYLEMNSLKPEDTAVYYCAADPKASRFRTLRRYDYWGQGTQVTVSS
notes: as for B1
[2]
  Kd: 0.9 nM

B15: SP27P (VHH)
VHH: EVQLVESGGGLVQIGDSLRLSCAASGGTFNRYGMGWFRQAPGKEREFVAAIRWDGVDTNYADFVKGRFTISRYNAKNTAYLQMNSLKPEDTAVYYCAADRRGLYTKHAHRYDYWGQGTQVTVSS
notes: as for B1
[4]
  Kd: 25.5 nM

B16: SP31P (VHH)
VHH: EVQLVESGGGLVQAGGSLRLSCAASRGTFGTYIMGWFRQAPGKEREFVAAISWRGANTYYGYSVKGRFTISRDNAKNTMYLQMADLKPEDTADYYCGVHLNGTPYYYASGYRYWGQGTQVTVSS
notes: as for B1
[4]
  Kd: 276 nM
[5]
  Kd: 31.8 nM

B17: SP30P (VHH)
VHH: EVQLVESGGGLVQAGGSLRLSCAASRGTFGTDIMGWFRQAPGKEREFVAAISWRGANTYYGYSVKGRFTISRDNAKNTMYLQMADLKPEDTADYYCGVHLNGTPYYYASGYRYWGQGTQVTVSS
notes: as for B1
[4]
  Kd: 12.2 nM

B18: SP36P (VHH)
VHH: EVQLVESGGGLVQAGGSLRLSCTPSITTAGTTIMAWFRQAPGNEREFVAAIWGSKTAYGDSMKGRLTISRDNVRDNGQKTVFLQMNNLQLQDTATYYCAASSGGYVHSSTSYEIWGRGTQVTVSS
notes: as for B1
[4]
  Kd: 31 nM
[5]
  Kd: 76.6 nM

B19: SP25P (VHH)
VHH: EVQLVESGGGLVQPGGSLRLSCAASESIFSINAMGWYRQTPGKQREMVASITPGGFTIYADSVKGRFTISRDNAKNTLYLQMNNLRFEDTAVYYCNAFAGSATSYHDFGSWGQGTQVTVSS
notes: as for B1
[4]
  binding result: binds

B20: SP29P (VHH)
VHH: EVQLVESGGGLVQAGDSLRLSCTVSGRTFNTYVTGWFRQAPGKEREFVAAIHQIGSTYYRNSVKGRFTISRDGAKDTVYLQMNNLKPEDSAVYYCAAGNGGYVMSDIAYGTWGQGTQVTVSS
notes: as for B1
[4]
  binding result: binds

B21: SP32P (VHH)
VHH: EVQLVESGGGTVQAGDSLRLSCTASGRTFSTYTMGWFRQAPGKERVVVAVNTWNNFTVHQPSVKGRFTMSRDNTKNSIYLQMDSLKPEDTAVYYCAASAKGTARYDYWGQGTQVTVSS
notes: as for B1
[4]
  binding result: binds

B22: SP35P (VHH)
VHH: EVQLVESGGGLVQPGGSLRLSCAASGSLGSNNPMAWYRQAPGKERELVASISSAYRTHYADFVKGRFTISRDSPKNTVSLQMNNLKPEDTAVYYCGIFVSARNYWGKGTQVTVSS
notes: as for B1
[4]
  binding result: binds
